Laboratory results: US20190322984A1 (MUSC FOUNDATION FOR RESEARCH DEVELOPMENT, published 2019)

Target: T1, mouse IL-2Rα on mouse effector CD8+ T cells (mouse, UniProt P01590 22-268)
T1 construct: whole, on cells; also called mIL-2Rα; CD25
T1 sequence (looked up): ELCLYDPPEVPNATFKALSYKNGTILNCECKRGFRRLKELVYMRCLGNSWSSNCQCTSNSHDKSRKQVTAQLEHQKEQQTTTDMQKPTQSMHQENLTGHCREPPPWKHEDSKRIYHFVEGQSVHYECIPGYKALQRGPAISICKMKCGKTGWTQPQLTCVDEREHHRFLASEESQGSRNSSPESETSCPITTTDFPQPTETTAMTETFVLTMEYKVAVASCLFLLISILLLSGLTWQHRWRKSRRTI
Test: flow cytometry, surface IL-2 staining of mIL-2-pulsed polyclonal effector CD8+ T cells
Procedure: FIGS. 3a-3g—IL-2Rα facilitates sustained IL-2 signaling through creation of an extracellular reservoir and recycling. (a) Presence of IL-2 on the surface of polyclonal T cells depends on IL-2Rα. Polyclonal effector CD8⁺ T cells were pulsed for 2 hours with or without mIL-2. Prior to (and during) the pulse, T cells were incubated with anti-IL-2Rα mAb (PC61). Cells were then washed and stained for surface IL-2. (b) Time course of surface IL-2 on polyclonal T cells after reculture at 37° C. (c) Levels of pSTAT5 in Tc1 cells that were pulsed with IL-2, washed, and recultured at 37° C. with or without anti-IL-2 mAb (clone S4B6 or 1A12). (d) Recycling of IL-2 on effector T cells. Pmel-1 Tc1 cells were incubated with hIL-2 or mIL-2 at 37° C. for 2 hours. As indicated, cells were then acid washed and recultured at 37° C. for 90 minutes in the presence of anti-hIL-2 mAb conjugated to Alexa647. Cells were then washed, fixed, and assayed by flow cytometry. (e) Recycling of IL-2 on pulsed cells while mixed with non-pulsed cells. Pmel-1 Tc1 cells were pulsed with hIL-2 at either 4° C. or 37° C. for 2 hours, and then acid washed. Cells were then mixed with non-pulsed CFSE-labeled Tc1 cells. The mixed cells were recultured at 37° C. for 45 minutes in the presence of anti-hIL-2 mAb conjugated to Alexa647. Cells were then washed, fixed, and assayed by flow cytometry. […]

B1: Mouse (m) IL-2 (ligand, UniProt P04351 21-169, looked up)
chain: APTSSSTSSSTAEAQQQQQQQQQQQQHLEQLLMDLQELLSRMENYRNLKLPRMLTFKFYLPKQATELKDLQCLEDELGPLRHVLDLTQSKSFQLEDAENFISNIRVTVVKLKGSDNTFECQFDDESATVVDFLRRWIAFCQSIISTSPQ
notes: Bought recombinant cytokine; used at 200 ng/ml in pulse assays; also called mouse IL-2
B1: binds.
